The record followed here is publication PMC2920595 (Science (New York, N.Y.), 2009).

For the test, the target named is T1, Ssh1p (large subunit, as in the purified Ssh1 complex) (Saccharomyces cerevisiae, UniProt P38353 1-490).
T1 sequence (looked up): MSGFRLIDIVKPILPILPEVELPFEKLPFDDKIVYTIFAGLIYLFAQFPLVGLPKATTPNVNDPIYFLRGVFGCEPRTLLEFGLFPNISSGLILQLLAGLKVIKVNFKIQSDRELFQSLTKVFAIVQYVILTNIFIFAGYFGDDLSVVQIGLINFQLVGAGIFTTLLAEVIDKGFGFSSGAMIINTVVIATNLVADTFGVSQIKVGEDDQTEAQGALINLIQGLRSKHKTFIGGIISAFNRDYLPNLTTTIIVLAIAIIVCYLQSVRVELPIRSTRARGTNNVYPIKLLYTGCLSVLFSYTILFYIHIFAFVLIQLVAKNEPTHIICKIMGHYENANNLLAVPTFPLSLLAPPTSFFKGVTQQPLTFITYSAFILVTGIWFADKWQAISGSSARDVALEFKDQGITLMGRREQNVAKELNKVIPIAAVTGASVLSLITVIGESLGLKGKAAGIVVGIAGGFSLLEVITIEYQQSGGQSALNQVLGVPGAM
Nature of the test: cryo-EM structure.

B1: ribosomal protein rpL25 (yeast 60S subunit) (natural protein)
chain: not shown
With B1, the binding result is recorded as “binds”.
